# US20220033470A1
# pKd: −log10 of the molar value.
# What was measured:
# [1] = target: human insulin receptor (human) (UniProt P06213); experiment: SPR (Biacore), soluble sortilin 50-500 nM over immobilized human insulin receptor
# [2] = target: murine insulin receptor (murine) (UniProt P15208); experiment: SPR (Biacore), soluble sortilin 50-500 nM over immobilized murine insulin receptor
# [3] = target: human insulin receptor (human) (UniProt P06213); experiment: Surface plasmon resonance (Biacore); human insulin receptor immobilized (0.0609 pmol/mm^2), sortilin injected at 50-500 nM, CaHBS buffer
# [4] = target: murine insulin receptor (murine) (UniProt P15208); experiment: Surface plasmon resonance (Biacore); murine insulin receptor (mIR) immobilized (0.0607 pmol/mm^2), sortilin injected at 50-500 nM, CaHBS buffer
substance,measurement,setting,value
Soluble sortilin (from UniProt Q99523 78-755) (receptor),pKd,[1],7.40
same,pKd,[2],7.40
same,pKd,[3],7.34
same,pKd,[4],7.38
